± gives the uncertainty stated by the source.
Test: amyloid nucleation score (Sup35N fusion, yeast selection) (log enrichment); library NNK1; higher = more nucleation; inactive = no reads after selection
Summary of the method: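 Using DiMSum, nucleation scores were taken as the log enrichment of output over input reads, centred on the mode score of non-aggregating sequences. The input and output reads came from Illumina sequencing of plasmid inserts, with sequences under 100 input reads excluded. The yeast were psi-negative, expressed Sup35N fused to peptides of 20 random codons, were induced with 100 μM copper sulfate for 24 hours, and were grown 7 days at 30°C on medium lacking adenine and uracil.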

Which amyloid nucleation score does the source give for ILSGRRDNSAERGRGGLWVM here?
The amyloid nucleation score was -0.206 ± 1.2.

With ILSRKGLLVQRKRVNVVVIP as the substance, how does the amyloid nucleation score read?
The amyloid nucleation score was 0.437 ± 0.32.

Which amyloid nucleation score does the source give for ILSVVYVLVCVVQVLCKQWH here?
The amyloid nucleation score was 0.163 ± 0.43.

Which amyloid nucleation score does the source give for ILTFQSCRRFACKAFMFRRR here?
The amyloid nucleation score was 2.07 ± 0.16.

Which amyloid nucleation score does the source give for ILVGCSKSRRLNGGQLLIPS here?
The amyloid nucleation score was 0.314 ± 0.45.

With ILVLYSVRWIEATR as the substance, how does the amyloid nucleation score read?
Its amyloid nucleation score is -0.224 ± 0.35.

For ILVVAVI, which amyloid nucleation score is on record?
The amyloid nucleation score was -0.64 ± 0.39.

For ILWFYYTLGACFCWLYINYK, which amyloid nucleation score is on record?
Its amyloid nucleation score is 0.26 ± 0.57.

Which amyloid nucleation score does the source give for ILWLVRSGVSYQQGGDSTPV here?
Its amyloid nucleation score is 0.919 ± 0.28.

For ILYFMLSRFTVVN, which amyloid nucleation score is on record?
The amyloid nucleation score was 0.881 ± 0.76.

Which amyloid nucleation score does the source give for ILYGISSFESIADWAGLMSV here?
The amyloid nucleation score was 0.535 ± 0.84.

For ILYTSTVGTQLPKDGLDC, which amyloid nucleation score is on record?
Its amyloid nucleation score is 0.593 ± 0.34.

Which amyloid nucleation score does the source give for IMAFNDRDHG here?
Its amyloid nucleation score is -0.093 ± 0.21.

With IMGVDVLGYTLDPVGDCNVF as the substance, how does the amyloid nucleation score read?
Its amyloid nucleation score is 0.412 ± 0.73.

For IMHQYRRGYDRDLNWNRMFR, which amyloid nucleation score is on record?
The amyloid nucleation score was 0.035 ± 0.72.

Which amyloid nucleation score does the source give for IMLANVSLLVRNHGRY here?
The amyloid nucleation score was 3.02 ± 0.16.

With IMLQCYIVFCFRGRSLIRKA as the substance, how does the amyloid nucleation score read?
The amyloid nucleation score was -0.524 ± 0.36.

Which amyloid nucleation score does the source give for IMNMIA here?
The amyloid nucleation score was 0.455 ± 0.48.

For IMRSMSGWFGFVMLFDAS, which amyloid nucleation score is on record?
Its amyloid nucleation score is -0.598 ± 0.79.

For IMRYLGVKKVE, which amyloid nucleation score is on record?
Its amyloid nucleation score is -0.245 ± 0.4.

Which amyloid nucleation score does the source give for IMSYLKTLSPVIAMRTIERP here?
The amyloid nucleation score was 0.821 ± 0.5.

For INDRVDGSVIEMSLCRYG, which amyloid nucleation score is on record?
Its amyloid nucleation score is 1.19 ± 0.8.

Which amyloid nucleation score does the source give for INIVVMGMAGRRQGVPVACV here?
Its amyloid nucleation score is 1.59 ± 0.72.

Which amyloid nucleation score does the source give for INKNCTANEP here?
The amyloid nucleation score was -0.067 ± 0.23.

For INNTLNI, which amyloid nucleation score is on record?
Its amyloid nucleation score is 0.793 ± 0.47.

Which amyloid nucleation score does the source give for INTSR here?
The amyloid nucleation score was 0.038 ± 0.23.

Which amyloid nucleation score does the source give for IPLGPGLPACINEGLKNPVS here?
The amyloid nucleation score was -0.439 ± 0.67.

Which amyloid nucleation score does the source give for IPMLFMSLRV here?
Its amyloid nucleation score is 0.171 ± 0.26.

With IPMPMLRRKKTGYLLSTGSA as the substance, how does the amyloid nucleation score read?
The amyloid nucleation score was 0.532 ± 0.49.

For IPPCWLTGLFNQYMNWTRS, which amyloid nucleation score is on record?
Its amyloid nucleation score is -0.134 ± 0.31.

For IQFPRLGGDTTVCDYGHVAI, which amyloid nucleation score is on record?
Its amyloid nucleation score is 1.32 ± 0.49.

With IQPLIWANYFVIGARV as the substance, how does the amyloid nucleation score read?
Its amyloid nucleation score is 3.66 ± 0.1.

With IQSFAMLMQVCLIAHLYRRL as the substance, how does the amyloid nucleation score read?
The amyloid nucleation score was 0.108 ± 1.

For IRFKRFGADAHGNKYNSRWI, which amyloid nucleation score is on record?
The amyloid nucleation score was 1.13 ± 0.32.

Which amyloid nucleation score does the source give for IRHIRPFFNVKDI here?
The amyloid nucleation score was -0.006 ± 0.37.

With IRIFNKHGHGG as the substance, how does the amyloid nucleation score read?
Its amyloid nucleation score is -0.664 ± 0.36.

Which amyloid nucleation score does the source give for IRKRDFGYKSLFPNGTAMIH here?
The amyloid nucleation score was -0.83 ± 0.88.

Which amyloid nucleation score does the source give for IRLRPERDLGVAWLCIGCKR here?
The amyloid nucleation score was -0.314 ± 1.2.

For IRMVL, which amyloid nucleation score is on record?
Its amyloid nucleation score is 0.697 ± 0.44.

With IRRAENLFIRYSHR as the substance, how does the amyloid nucleation score read?
The amyloid nucleation score was 0.855 ± 0.58.

With IRRSHSEVPVVA as the substance, how does the amyloid nucleation score read?
Its amyloid nucleation score is 0.22 ± 0.37.

With IRRSIGVRAPWTFSEEDGSS as the substance, how does the amyloid nucleation score read?
The amyloid nucleation score was 0.6 ± 0.79.

Which amyloid nucleation score does the source give for IRRYLSCPYNISIVYSENIV here?
Its amyloid nucleation score is -0.185 ± 0.71.

For IRTKILLLHKNQKTVVKGLG, which amyloid nucleation score is on record?
Its amyloid nucleation score is 0.073 ± 1.5.

With ISAMSVW as the substance, how does the amyloid nucleation score read?
Its amyloid nucleation score is -0.031 ± 0.74.

Which amyloid nucleation score does the source give for ISATCL here?
Its amyloid nucleation score is 0.858 ± 0.76.

For ISCRFAMVLGLKSWILTYV, which amyloid nucleation score is on record?
The amyloid nucleation score was “inactive”.

For ISFSSYYNLVLDYLELSQCL, which amyloid nucleation score is on record?
The amyloid nucleation score was “inactive”.

For ISGMRGFILLGRRVFTKVSS, which amyloid nucleation score is on record?
The amyloid nucleation score was -0.277 ± 0.33.

For ISHNQIWVRIGISRLFQHKV, which amyloid nucleation score is on record?
Its amyloid nucleation score is 2 ± 0.35.

For ISKSFWTRGECCRK, which amyloid nucleation score is on record?
The amyloid nucleation score was 0.368 ± 0.39.

For ISMTDYVPSMHYAQTRVHLN, which amyloid nucleation score is on record?
Its amyloid nucleation score is -0.085 ± 0.78.

Which amyloid nucleation score does the source give for ISPLSQYARLVRQVSRAWYD here?
The amyloid nucleation score was 0.569 ± 0.87.

Which amyloid nucleation score does the source give for ISVCFWSIKYRSWAILMPKG here?
Its amyloid nucleation score is 0.077 ± 0.58.

For ISYRGSFHTNMWTCILRTAK, which amyloid nucleation score is on record?
The amyloid nucleation score was 0.082 ± 0.42.

With ITCSHPQRMLVCSCKSPWCF as the substance, how does the amyloid nucleation score read?
The amyloid nucleation score was 3.31 ± 0.13.

For ITFIVAGI, which amyloid nucleation score is on record?
Its amyloid nucleation score is -0.113 ± 0.21.

For ITLIGQHRFLLVFSTNQLNH, which amyloid nucleation score is on record?
Its amyloid nucleation score is 0.46 ± 0.3.

With ITNFMGGIRVYRCDASMKGG as the substance, how does the amyloid nucleation score read?
Its amyloid nucleation score is 0.395 ± 0.28.

Which amyloid nucleation score does the source give for ITVSKKATWCRQRGMRGLRG here?
Its amyloid nucleation score is 1.65 ± 0.59.

Which amyloid nucleation score does the source give for ITYINLSSSYKIPRPTHMRI here?
The amyloid nucleation score was 6.07 ± 0.065.

For ITYIRHYCKPVVL, which amyloid nucleation score is on record?
Its amyloid nucleation score is 5.65 ± 0.11.

With IVASSISAQVSLLYRALCIY as the substance, how does the amyloid nucleation score read?
Its amyloid nucleation score is 3.69 ± 0.16.

For IVASYRYNYMYDLHLLSALQ, which amyloid nucleation score is on record?
Its amyloid nucleation score is “inactive”.

Which amyloid nucleation score does the source give for IVDSVRGKGVY here?
Its amyloid nucleation score is 1.14 ± 0.79.

With IVGIVT as the substance, how does the amyloid nucleation score read?
The amyloid nucleation score was 1.04 ± 0.35.

For IVGST, which amyloid nucleation score is on record?
Its amyloid nucleation score is -0.894 ± 0.47.

With IVGVEGLKPIKAPLLLNRSV as the substance, how does the amyloid nucleation score read?
Its amyloid nucleation score is “inactive”.

Which amyloid nucleation score does the source give for IVLKVIINVCHYLTGGSTFA here?
Its amyloid nucleation score is 6.475 ± 0.062.

For IVQTHYN, which amyloid nucleation score is on record?
Its amyloid nucleation score is -0.817 ± 1.7.

With IVRVEWFSHYSFVFNGIDGG as the substance, how does the amyloid nucleation score read?
Its amyloid nucleation score is 0.679 ± 0.54.

For IVVNIYVRWYPVGTGWDYLT, which amyloid nucleation score is on record?
Its amyloid nucleation score is “inactive”.

With IVVSQPVFEGYIWLLNVAGG as the substance, how does the amyloid nucleation score read?
The amyloid nucleation score was 4.42 ± 0.094.

Which amyloid nucleation score does the source give for IVWFCINDTASVVLKTLLSH here?
Its amyloid nucleation score is 1.36 ± 0.78.

For IVWYELIESNVLKSKGCVVN, which amyloid nucleation score is on record?
The amyloid nucleation score was -0.322 ± 1.1.

Which amyloid nucleation score does the source give for IVYLSCFVRCP here?
The amyloid nucleation score was 0.379 ± 0.56.

Which amyloid nucleation score does the source give for IWCSVNEWQYRVKVV here?
Its amyloid nucleation score is 0.03 ± 0.5.

Which amyloid nucleation score does the source give for IWDSVLF here?
The amyloid nucleation score was 1.57 ± 0.33.

With IWGKC as the substance, how does the amyloid nucleation score read?
Its amyloid nucleation score is -0.644 ± 0.76.

For IWLSFKDLCKVRICSS, which amyloid nucleation score is on record?
The amyloid nucleation score was 0.803 ± 0.59.

Which amyloid nucleation score does the source give for IWMIAQDGFNFQLSNR here?
Its amyloid nucleation score is 0.282 ± 0.31.

With IWSSVQEFLGCMFWVIRINH as the substance, how does the amyloid nucleation score read?
Its amyloid nucleation score is 1.77 ± 0.45.

For IWVHHRSVTKSWLKMVAWNH, which amyloid nucleation score is on record?
Its amyloid nucleation score is -0.514 ± 0.43.

Which amyloid nucleation score does the source give for IYCSCPSKQE here?
The amyloid nucleation score was -0.075 ± 0.24.

For IYIGLLYVLCIGLASMCLTS, which amyloid nucleation score is on record?
Its amyloid nucleation score is 0.199 ± 0.84.

Which amyloid nucleation score does the source give for IYPRMCLRGFAACV here?
The amyloid nucleation score was 2.91 ± 0.13.

With IYRDGIGTDIWFRGSICKCL as the substance, how does the amyloid nucleation score read?
Its amyloid nucleation score is 0.704 ± 0.61.
